Experimental data published in patent US20060280645A1, “Method for terminal sterilization of transdermal delivery devices” (priority 2005, published 2006).

Test: Terminal sterilization by e-beam irradiation: BNP purity and degradation products by RP-HPLC
Assay type: physicochemical
Details: best performing system (Example 4)
Procedure: FIGS. 14-16 detail the major degradation pathways for BNP coated on microprojections for all conditions treated by e-beam. […] All modes of degradation are reduced for the microprojection members packaged with desiccant and pre-dried retainer rings and purged with argon.
In this example, methionine from JT Baker (Phillipsburg, N.J.) was added to the BNP formulations in the amount of 1% by weight. These coating formulations were then irradiated using either e-beam or gamma radiation at varying temperatures and under varying atmospheric conditions. FIGS. 17-20 show the purity and degradation of the samples following gamma irradiation and FIGS. 21-24 show the purity and degradation of the samples following e-beam irradiation.
Further, systems packaged with pre-dried retainer rings performed better than systems stored with desiccant when terminally sterilized by e-beam. The best performing system retained 95.1% of the BNP purity, representing only approximately a 2% drop from the initial material purity.

Substance: BNP
- BNP purity retained: 95.1%
- drop from the initial material purity: ~2%
